# Tested on: Escherichia coli TOP10
# Test: shrunken log2 fold change of peptide-encoding DNA abundance (4.5 h post-induction vs induction); higher = less antimicrobial activity (less host growth inhibition)
# Conditions: time post-induction: 4.5 h; library: site-saturation at positions 5, 18, 19, 20
# 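Note: peptides expressed intracellularly from a pBAD plasmid library in pooled LB shake-flask culture, induced with 0.3% L-arabinose, DNA abundance read by NGS, three biological replicates, DESeq2 with apeglm shrinkage.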
row,Sequence,shrunken log2 fold change
1,RRIRERPPRLPRPRPRPQLEPRP,-0.0385
2,RRIRVRPPRLPRPRPRPTESPRP,-0.00266
3,RRIRARPPRLPRPRPRPRWNPRP,0.00795
4,RRIRHRPPRLPRPRPRPTRVPRP,0.211
5,RRIRKRPPRLPRPRPRPVASPRP,0.533
6,RRIRRRPPRLPRPRPRPKAQPRP,-0.00801
7,RRIRQRPPRLPRPRPRPYGQPRP,-0.239
8,RRIRVRPPRLPRPRPRPNKSPRP,-0.348
9,RRIRARPPRLPRPRPRPVGYPRP,0.265
10,RRIRFRPPRLPRPRPRPSGWPRP,0.187
11,RRIRFRPPRLPRPRPRPDEDPRP,0.181
12,RRIRDRPPRLPRPRPRPAFYPRP,-0.305
13,RRIRQRPPRLPRPRPRPITYPRP,-0.402
14,RRIRSRPPRLPRPRPRPQPTPRP,0.447
15,RRIRSRPPRLPRPRPRPATPPRP,0.373
16,RRIRQRPPRLPRPRPRPTLDPRP,0.476
17,RRIRHRPPRLPRPRPRPICMPRP,-0.00804
18,RRIRNRPPRLPRPRPRPIQMPRP,-0.0365
19,RRIRKRPPRLPRPRPRPYPVPRP,-0.801
20,RRIRGRPPRLPRPRPRPHEEPRP,0.383
21,RRIRQRPPRLPRPRPRPKWRPRP,0.0839
22,RRIRNRPPRLPRPRPRPPLTPRP,0.0501
23,RRIRERPPRLPRPRPRPKKRPRP,0.0479
24,RRIRTRPPRLPRPRPRPWPSPRP,-0.00931
25,RRIRPRPPRLPRPRPRPHNCPRP,-0.111

row,Sequence,shrunken log2 fold change
1,RRIRTRPPRLPRPRPRPDCQPRP,-0.107
2,RRIRTRPPRLPRPRPRPAMIPRP,-0.0108
3,RRIRFRPPRLPRPRPRPLVRPRP,-0.102
4,RRIRARPPRLPRPRPRPHITPRP,-0.294
5,RRIRVRPPRLPRPRPRPFHAPRP,-0.229
6,RRIRVRPPRLPRPRPRPVPMPRP,0.0779
7,RRIRFRPPRLPRPRPRPQELPRP,-0.0341
8,RRIRFRPPRLPRPRPRPYMWPRP,-1.43
9,RRIRPRPPRLPRPRPRPKFKPRP,0.0351
10,RRIRVRPPRLPRPRPRPQTKPRP,0.0433
11,RRIRNRPPRLPRPRPRPGGGPRP,0.723
12,RRIRLRPPRLPRPRPRPYEAPRP,-1.12
13,RRIRIRPPRLPRPRPRPFLPPRP,-0.4
14,RRIRERPPRLPRPRPRPSGPPRP,-0.203
15,RRIRRRPPRLPRPRPRPPIWPRP,2.59
16,RRIRCRPPRLPRPRPRPCFYPRP,-0.675
17,RRIRTRPPRLPRPRPRPTDRPRP,-0.212
18,RRIRYRPPRLPRPRPRPFFNPRP,-0.811
19,RRIRQRPPRLPRPRPRPFQTPRP,-0.01
20,RRIRSRPPRLPRPRPRPPKVPRP,-0.211
21,RRIRNRPPRLPRPRPRPCHIPRP,-0.366
22,RRIRDRPPRLPRPRPRPFNSPRP,-0.0203
23,RRIRWRPPRLPRPRPRPVANPRP,0.0636
24,RRIRFRPPRLPRPRPRPICYPRP,0.00889
25,RRIRHRPPRLPRPRPRPWVLPRP,-0.776
